T1: Full length human TNFR2 on Jurkat E6-1 cells (Clone NO.3) (human, UniProt P20333 23-461)
T1 construct: whole, on cells; also called human TNFR2+ Jurkat cells; hTNFR2 Jurkat
T1 sequence (looked up): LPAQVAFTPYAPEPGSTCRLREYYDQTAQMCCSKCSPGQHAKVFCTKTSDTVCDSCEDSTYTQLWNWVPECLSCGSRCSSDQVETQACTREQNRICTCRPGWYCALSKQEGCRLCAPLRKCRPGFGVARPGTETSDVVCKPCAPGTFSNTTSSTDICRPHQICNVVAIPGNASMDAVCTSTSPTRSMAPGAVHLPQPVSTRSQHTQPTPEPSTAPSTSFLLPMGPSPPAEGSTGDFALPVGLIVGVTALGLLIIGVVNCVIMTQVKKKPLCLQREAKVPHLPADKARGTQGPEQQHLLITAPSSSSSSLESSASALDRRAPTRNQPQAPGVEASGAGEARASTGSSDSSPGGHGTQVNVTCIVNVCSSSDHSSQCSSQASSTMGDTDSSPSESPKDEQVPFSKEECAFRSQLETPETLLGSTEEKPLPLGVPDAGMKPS

T2: rat TNFR2 (R&D systems, 8348-R2-050) (rat, UniProt Q80WY6 23-258)
T2 construct: Bought protein
T2 sequence (looked up): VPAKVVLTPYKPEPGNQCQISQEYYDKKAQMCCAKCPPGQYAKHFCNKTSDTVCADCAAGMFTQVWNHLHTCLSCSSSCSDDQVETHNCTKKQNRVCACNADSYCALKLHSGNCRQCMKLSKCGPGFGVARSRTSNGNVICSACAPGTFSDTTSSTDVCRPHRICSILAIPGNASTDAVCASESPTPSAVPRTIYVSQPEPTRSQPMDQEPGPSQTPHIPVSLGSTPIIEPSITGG

T3: mouse TNFR2 (R&D systems, 426-R2-050/CF) (mouse, UniProt P25119 23-258)
T3 construct: Bought protein
T3 sequence (looked up): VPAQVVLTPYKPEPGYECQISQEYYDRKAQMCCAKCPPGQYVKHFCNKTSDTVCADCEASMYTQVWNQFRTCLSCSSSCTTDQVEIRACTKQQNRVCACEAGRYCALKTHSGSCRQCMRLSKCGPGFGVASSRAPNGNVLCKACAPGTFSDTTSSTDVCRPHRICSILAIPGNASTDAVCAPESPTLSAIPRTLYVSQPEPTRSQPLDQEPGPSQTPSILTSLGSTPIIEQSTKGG

T4: Human TNFR1 (Acro Biosystem, TN1-H5222) (human, UniProt P19438 30-211)
T4 construct: Bought protein; also called TNF receptor type 1; CD120a
T4 sequence (looked up): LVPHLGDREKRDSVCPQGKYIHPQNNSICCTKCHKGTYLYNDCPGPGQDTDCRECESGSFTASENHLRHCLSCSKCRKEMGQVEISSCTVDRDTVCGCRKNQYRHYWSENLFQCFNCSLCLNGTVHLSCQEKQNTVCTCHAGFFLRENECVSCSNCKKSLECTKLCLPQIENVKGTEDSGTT

T5: His tagged human TNFR2 ECD (Acro Biosystem, TN2-H5227) (human, UniProt P20333 23-257)
T5 construct: extracellular domain; Bought protein; also called TNFR2-His; hTNFR2-His; not shown: His tag
T5 sequence (looked up): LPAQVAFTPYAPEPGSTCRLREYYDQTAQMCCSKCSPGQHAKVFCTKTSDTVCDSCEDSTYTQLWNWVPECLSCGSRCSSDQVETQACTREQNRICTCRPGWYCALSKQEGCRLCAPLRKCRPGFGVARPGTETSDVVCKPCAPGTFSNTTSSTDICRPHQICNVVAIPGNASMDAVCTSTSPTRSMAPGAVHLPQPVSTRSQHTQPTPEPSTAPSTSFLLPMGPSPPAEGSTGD


Key:
[1] = target: T1, Full length human TNFR2 on Jurkat E6-1 …; assay: FACS on human TNFR2+ Jurkat Clone No.3, biotinylated antibody with streptavidin-PE
Description: FACS analysis was used to evaluate the binding of purified anti-TNFR2 antibody candidates produced from example 6 to cell surface TNFR2 target. Anti-human TNFR2 antibodies and negative control IgG were biotinylated using a EZ-Link™ Micro Sulfo-NHS-Biotinylation Kit (Thermo Fisher Scientific, 21925) according to manufacturer's instructions. Biotinylated antibodies (100 μg/mL) were then incubated with Halt™ Protease Inhibitor Cocktail (100X, Thermo Scientific, 1862209) and 80 μg/mL Streptavidin-R-Phycoerythrin (PE) conjugate (Invitrogen, S21388). Antibodies were stored at 4° C. until use. 5×10⁵ Clone No.3 of human TNFR2⁺ Jurkat cells were distributed each well and blocked with human TruStain FcX™ (Biolegend, 422302) for 10 minutes at room temperature before stained with a serially diluted PE conjugated anti-human TNFR2 antibodies or hIgG1 starting from 50 μg/mL in a 5-fold dilution fashion for 30 minutes at 4° C. PE-anti hTNFR2 (Clone MR2-1, Thermo fisher #TNFR7504) was used as positive control. The geometric mean fluorescent intensity was measured on Sony SA3800 cell analyzer. Data were analyzed using Flowjo Software (Tree star Inc).

[2] = target: T2, rat TNFR2 (R&D systems, 8348-R2-050); assay: ELISA, receptor coated at 1 µg/ml
Description: Plates were incubated at 4° C. overnight. Antibodies was titrated from 100 μg/ml in a 5-fold dilution series, and distributed 100 μL, per well and incubated at 37° C. for 1 hour. Human IgG1 isotype control (BioxCell, BE0297) was used as negative control. TNFR2 Polyclonal Antibody (Invitrogen, PAS-80159) and HRP conjugated Goat anti-Rabbit IgG Fc Secondary Antibody (Invitrogen, A16116) were used as positive control for rat TNFR2 detection.

[3] = target: T3, mouse TNFR2 (R&D systems, 426-R2-050/CF); assay: ELISA, receptor coated at 1 µg/mL
Description: (§1) Human TNFR2 (Acro Biosystem, TN2-H5227), Human TNFR1 (Acro Biosystem, TN1-H5222), Cynomolgus TNFR2 (Sino Biological, 90102-CO8H) or mouse TNFR2 (R&D systems, 426-R2-050/CF) was coated on high binding polystyrene flat bottom micro-titer plates (Thermo Scientific, 3455) in PBS (PH=7.4, Gibco,10010-031) at 1 μg/mL and 100 μL per well. Plates were incubated at 4° C. overnight.
(§2) Plates were warmed up to room temperature the next day and washed with 200 μL PBS containing 0.1% Tween 20 (Life technologies, 003005) per well for 3 times. Plates were blocked with 200 μL PBS buffer containing 1% BSA (Fisher Scientific, BP1600-100) per well for 1 hour at 37° C. Antibodies was titrated from 5 μg/mL in a 5-fold dilution series, distributed 100 μL per well and incubated at 37° C. for 1 hour. Human IgG1 isotype control (BioxCell, BE0297) was used as negative control. Plates were washed with 200 μL PBS containing 0.1% Tween 20 (Life technologies, 003005) per well for 3 times. Goat anti-Human IgG Fc Secondary Antibody-HRP conjugate (Invitrogen, A18817) were distributed at 0.5μg/mL and 100 μL per well to detect bound antibodies. After 1-hour incubation of secondary antibody at 37° C., plates were washed with 200 μL PBS containing 0.1% Tween 20 (Life technologies, 003005) per well for 3 times. Plates were developed using TMB Substrate Solution (eBioscience, 00-4201-56) and stopped with ELISA stop solution (Invitrogen, SSO4). The level of bound antibodies was determined by reading absorbance at 450 nm. Mouse anti-human TNFR1 antibody (ThermoFisher Scientific, MA1-81005) and goat anti mouse IgG secondary antibody-HRP conjugate (Invitrogen, 62-5520) were used as positive control for human TNFR1 detection. Armenian Hamster anti-mouse TNFR2 antibody (InVivoMab, BE0247) and HRP-Goat anti-Armenian Hamster IgG (H+L) Secondary Antibody (Invitrogen, PA1-32045) were used as positive control for mouse TNFR2 detection.

[4] = target: T4, Human TNFR1 (Acro Biosystem, TN1-H5222); assay: ELISA, receptor coated at 1 µg/mL
Description: as §1, §2

[5] = target: T5, His tagged human TNFR2 ECD (Acro …); assay: ELISA, receptor coated at 1 µg/mL, antibody titrated from 5 µg/mL
Description: as §1, §2

Binder | binding result [1] | binding result [2] | binding result [3] | binding result [4] | binding result [5]
TN36-3 (antibody, human IgG1, V domains shown, Humanized; also called AL2/AL9) VH: EVQLVESGGGLIQPGGSLRLSCAASGFSLSSSAVSWVRQAPGKGLEWIGAIGSGGTSYYSNWAKSRFTISRDNSKNTLYLQMNSLRAEDTAVYYCARDPNSSDYPYGAYGMGLWGRGTLVTVSS VL: DIQMTQSPSSLSASVGDRVTITCQVSQSISSYLSWYQQKPGKPPKLLIYYASTLASGVPSRFSGSGSGTDFTLTISSLQPEDFATYYCQQGYITSNVGNAFGGGTKVEIK | binds | no binding (tested: titrated from 100 µg/ml) | no binding (tested: titrated from 5 µg/mL) | no binding (tested: titrated from 5 µg/mL) | binds
TN36-5 (antibody, human IgG1, V domains shown, Humanized; also called AL2/AL11) VH: EVQLVESGGGLIQPGGSLRLSCAASGFSLSSSAVSWVRQAPGKGLEWIGAIGSGGTSYYSNWAKSRFTISRDNSKNTLYLQMNSLRAEDTAVYYCARDPNSSDYPYGAYGMGLWGRGTLVTVSS VL: DIQLTQSPSFLSASVGDRVTITCQVSQSISSYLSWYQQKPGKAPKLLIYYASTLASGVPSRFSGSGSGTEFTLTISSLQPEDFATYYCQQGYITSNVGNAFGGGTKVEIK | binds | no binding (tested: titrated from 100 µg/ml) | no binding (tested: titrated from 5 µg/mL) | no binding (tested: titrated from 5 µg/mL) | binds
TN36-4 (antibody, human IgG1, V domains shown, Humanized; also called AL2/AL10) VH: EVQLVESGGGLIQPGGSLRLSCAASGFSLSSSAVSWVRQAPGKGLEWIGAIGSGGTSYYSNWAKSRFTISRDNSKNTLYLQMNSLRAEDTAVYYCARDPNSSDYPYGAYGMGLWGRGTLVTVSS VL: DIQMTQSPSFLSASVGDRVTITCQVSQSISSYLSWYQQKPGKAPKLLIYYASTLASGVPSRFSGSGSGTDFTLTISSLQPEDFATYYCQQGYITSNVGNAFGGGTKVEIK | binds | no binding (tested: titrated from 100 µg/ml) | no binding (tested: titrated from 5 µg/mL) | no binding (tested: titrated from 5 µg/mL) | binds
TN36-8 (antibody, human IgG1, V domains shown, Humanized; also called AL3/AL10) VH: EVQLVESGGGLIQPGGSLRLSCAASGFSLSSSAVSWVRQAPGKGLEWIGAIGSGGTSYYSNWAKSRFTISRDNSKNTLYLQMNSLRAEDTAVYFCARDPNSSDYPYGAYGMGLWGRGTLVTVSS VL: DIQMTQSPSFLSASVGDRVTITCQVSQSISSYLSWYQQKPGKAPKLLIYYASTLASGVPSRFSGSGSGTDFTLTISSLQPEDFATYYCQQGYITSNVGNAFGGGTKVEIK | binds | no binding (tested: titrated from 100 µg/ml) | no binding (tested: titrated from 5 µg/mL) | no binding (tested: titrated from 5 µg/mL) | binds
TN36-6 (antibody, human IgG1, V domains shown, Humanized; also called AL3/AL8) VH: EVQLVESGGGLIQPGGSLRLSCAASGFSLSSSAVSWVRQAPGKGLEWIGAIGSGGTSYYSNWAKSRFTISRDNSKNTLYLQMNSLRAEDTAVYFCARDPNSSDYPYGAYGMGLWGRGTLVTVSS VL: DIQMTQSPSSLSASVGDRVTITCQVSQSISSYLSWYQQKPGKAPKLLIYYASTLASGVPSRFSGSGSGTDFTLTISSLQPEDFATYYCQQGYITSNVGNAFGGGTKVEIK | binds | no binding (tested: titrated from 100 µg/ml) | no binding (tested: titrated from 5 µg/mL) | no binding (tested: titrated from 5 µg/mL) | binds
TN36-7 (antibody, human IgG1, V domains shown, Humanized; also called AL3/AL9) VH: EVQLVESGGGLIQPGGSLRLSCAASGFSLSSSAVSWVRQAPGKGLEWIGAIGSGGTSYYSNWAKSRFTISRDNSKNTLYLQMNSLRAEDTAVYFCARDPNSSDYPYGAYGMGLWGRGTLVTVSS VL: DIQMTQSPSSLSASVGDRVTITCQVSQSISSYLSWYQQKPGKPPKLLIYYASTLASGVPSRFSGSGSGTDFTLTISSLQPEDFATYYCQQGYITSNVGNAFGGGTKVEIK | binds | no binding (tested: titrated from 100 µg/ml) | no binding (tested: titrated from 5 µg/mL) | no binding (tested: titrated from 5 µg/mL) | binds
TN36-21 (antibody, human IgG1, V domains shown, Humanized; also called AL6/AL11) VH: EVQLVESGGGLVQPGGSLRLSCAASGFSLSSSAVSWVRQAPGKGLEWIGAIGSGGTSYYSNWAKSRFTISRDNSKNTLYLQMNSLRAEDTAVYYCARDPNSSDYPYGAYGMGLWGPGTLVTVSS VL: DIQLTQSPSFLSASVGDRVTITCQVSQSISSYLSWYQQKPGKAPKLLIYYASTLASGVPSRFSGSGSGTEFTLTISSLQPEDFATYYCQQGYITSNVGNAFGGGTKVEIK |  | no binding (tested: titrated from 100 µg/ml) | no binding (tested: titrated from 5 µg/mL) | no binding (tested: titrated from 5 µg/mL) | 

Reference: US20240043551A1 (ADLAI NORTYE BIOPHARMA, published 2024)
